Tests used:
[1] = system: collagen induced arthritis (CIA); assay: Collagen-induced arthritis (CIA) in DBA/1 mice, footpad thickness; type: in vivo; conditions: 100 μg per injection
From the text: Animal treatment: 44 DBA/1 mice were induced with a joint inflammatory disease by two subcutaneous (s.c.) injections into the base of the tail of type II collagen three weeks apart. Joint inflammation, which appears several days after the last collagen injection, causes enhanced marked foot pad swelling, as well as swelling of other joints. The diameter of nonarthritic footpads is 1.5 to 1.7 mm. A footpad diameter of 1.9 to 2.0 mm was arbitrarily set as disease onset. […] Human galectin-8 protein and variants (100 μg per injection) as well as control injections were injected IP at disease onset and then every day for 11 days. The 44 mice were divided into 5 experimental groups as follows: Group 1 (negative control): systemic injection (starting at CIA onset) of PBS or PBS+30% glycerol (storing dilution solution of galectin proteins) (10 mice). Group 2 (positive control): systemic injection (starting at CIA onset) of anti-mouse TNFα mAb (cat. no. AMC-3012, Biosource Int. Inc. USA) adhering to the standard protocol (i.e., 100 μg antibody/mouse every day for 11 days) (6 mice). Group 3 (positive control): systemic injection of human galectin-8 protein according to the standard protocol (10 mice). Group 4: systemic injection of 100 μg per dose of human galectin-8 variant 1 according to the standard protocol (10 mice). Group 5: systemic injection of 100 μg per dose of human galectin-8 variant 2 (8 mice). The effect on footpad thickness was determined in a “blind” fashion, recording the electronic microcaliper measurements of the thickness of the joints, by picking the animals at random and recording their ears' signs following measurement. The mice were bled prior to disease induction, following disease onset and upon termination of the experiment (approximately day 11). The sera were stored and later analyzed for the presence of rheumatoid factor (RF) and cytokines. The mice were killed upon termination of the experiment and the joints removed from some of the animals for histopathological examination.

IL-1β = IL-1β levels in media of LPS-supplemented human synovial tissue / cell cultures, sandwich enzyme immunoassay; type: cell-based; conditions: LPS 3 μg/ml, 50-2000 ng/ml, 48 hours
Description: Specimen Selection and Culture Conditions: Synovial tissues were obtained from patients undergoing total knee or hip replacement for osteoarthritis (OA). Within 2 hours of removal, synovial tissues were cut into small pieces, of a few millimeters in diameter. Synovial fibroblasts were cultured in 2 ml RPMI 1640 supplemented with 2 mM L-glutamine, 100 U/ml penicillin and 100 μg/ml streptomycin sulphate (Biological Industries).
Inflammatory cells and PBLs derived from joints of rheumatoid arthritic (RA) patients were cultured individually [RPMI-1640 (Sigma, Israel)]. The murine fibroblast line, NIH 3T3, was used as a control. The recombinant galectin-8 peptide (r-galectin-8) was added to the culture medium of the synovial fibroblasts at a concentration of 0.125 μM, 0.25 μM, 0.5 μM and 1 μM) together with lipopolysaccharide (LPS, 3 μg/ml). The recombinant galectin-8 peptide variants (r-galectin-8 variant 1 and r-galectin-8 variant 2) were added to all the culture mediums in the following concentrations: 50 ng/ml, 125 ng/ml, 250 ng/ml, 500 ng/ml, 750 ng/ml, 1 μg/ml and 2 μg/ml together with lipopolysaccharide (LPS, 3 μg/ml). Following 48 hours of incubation (37° C., 5% CO2), the measurement of IL-1β, TNF-α and IL-1ra production was performed in supernatants by quantitative sandwich enzyme immunoassay technique (R&D Systems, Inc., USA). Detection limits were 1 pg/ml to 14 pg/ml. IL-1ra production was tested with and without the addition of lipopolysaccharide (LPS, 3 μg/ml) to the culture media.

B1: galectin-8 variant 1: recombinant galectin-8 variant 1 polypeptide, SEQ ID NO: 6, isoform found in synovial fluid cells of arthritic patients (protein)
chain: MMLSLNNLQNIIYNPDLQSTQASSLELTEISRENVPKSGTPQLPSNRGGDISKIAPRTVYTKSKEARQSHFDLHENTTYELCVKSLPFAARLNTPMGPGRTVVVKGEVNANAKSFNVDLLAGKSKDIALHLNPRLNIKAFVRNSFLQESWGEEERNITSFPFSPGMYFEMIIYCDVREFKVAVNGVHSLEYKHRFKELSSIDTLEINGDIHLLEVRSW
- CIA manifestations (footpad swelling) ([1]; IP / systemic, from disease onset every day for 11 days): substantially reduced
- alleviating the swelling in the footpad, compared with positive controls ([1]; every day for 11 days): at least as effective as anti-TNFα mAb and the human galectin-8 recombinant peptide
- IL-1β levels in media (IL-1β; PBLs from RA patients): significantly and dose-dependently inhibited
- IL-1β levels in media (IL-1β; PBLs from RA patients, listed as galectin-8 var. 1): decrease
- IL-1β levels in media (IL-1β; human fibroblasts from OA patients): significantly and dose-dependently inhibited
- IL-1β levels in media (IL-1β; human fibroblasts from OA patients, listed as galectin-8 var. 1): decrease
- IL-1β levels in media (IL-1β; synovial fluid cells (SFCs)): significantly and dose-dependently inhibited
- IL-1β levels in media (IL-1β; synovial fluid cells (SFCs), listed as galectin-8 var. 1): decrease

Reference: patent US8076087B2, “Galectin sequences and compositions and methods utilizing same for treating or diagnosing arthritis and other chronic inflammatory diseases” (Medical Research Fund of Tel Aviv Souraskv Medical Center, priority 2002, dated 2011)
